We go through ten substances from patent US20240016923A1.

Holding throughout (assay): dose-dependent ELISA, antigen captured by GNA lectin
Background: In an ELISA, binding on a coated surface is turned into a signal by an enzyme label.

Assay [1] addresses membrane-bound E1E2 (mbE1E2) (Hepatitis C virus, isolate H77C (genotype 1a)) (UniProt P27958).
In assay [2] the target is secreted E1E2 with c-Fos/c-Jun leucine zipper scaffold (sE1E2.LZ) (Hepatitis C virus H77; human).
Assay [3] addresses secreted E2 ectodomain (sE2), HCV E2 residues 384-661 (Hepatitis C virus, isolate H77C) (UniProt P27958).

Turning to AR4A (antibody), the Kd worked out at 2.3 nM in assay [1] and 16 nM in assay [2]. The same substance registered a fold lower affinity relative to mbE1E2 in assay [2] of 8 fold.

In the case of AR5A (antibody), the Kd in assay [1] stood at 1.5 nM; in assay [2], 1.7 nM.

As for CBH-4D (antibody), the equilibrium dissociation constant (Kd) in assay [1] came out at 28 nM; in assay [2], 26 nM; in assay [3] it was 1 nM.

For the substance CBH-4G (antibody), the dissociation constant (Kd) in assay [1] turned out to be 7.8 nM; in assay [2] it was 18 nM; in assay [3] it was 0.5 nM.

As for CBH-7 (antibody), the dissociation constant (Kd) is 1 nM in assay [1], 1.7 nM in assay [2] and 0.3 nM in assay [3].

With HC33.1 (antibody), the Kd came out at 3.8 nM in assay [1], 0.9 nM in assay [2] and 1.9 nM in assay [3].

HC84.24 (antibody) registered a Kd in assay [3] of 0.7 nM.

“HC-1 AM (affinity-matured HC-1 antibody)”: the Kd in assay [1] amounted to 1.5 nM; in assay [2], 2.9 nM; in assay [3], 3.6 nM.

In the case of HC-11 (antibody), the Kd is 1.8 nM in assay [1], 3.2 nM in assay [2] and 11 nM in assay [3].

Take HCV1 (antibody): the dissociation constant Kd in assay [1] turned out to be 9.8 nM; in assay [2], 3.5 nM; in assay [3], 6.2 nM.

In general, Kd refers to the equilibrium constant for the complex coming apart. Low values mean higher affinity, high ones lower affinity.
